Data from the supplement of paper PMC7877785.
± gives the uncertainty stated by the source.

Assay: self-splicing fitness, log relative to wild type (ln ratio); higher = more splicing; Tetrahymena group I intron in knt gene, E. coli kanamycin selection, DiMSum; sequences stand for … in CUCUCU…GGAGGGAAAAGUUAUCAGGCAUGCACCUGGUAGCUAGUCUUUAAACCAAUAGAUUGCAUCGGUUUAAAAGGCAAGACCGUCAAAUUGCGGGAAAGGGGUCAACAGCCGUUCAGUACCAAGUCUCAGGGGAAACUUUGAGAUGGCCUUGCAAAGGGUAUGGUAAUAAGCUGACGGACAUGGUCCUAACCACGCAGCCAAGUCCUAAGUCAACAGAUCUUCUGUUGAUAUGGAUGCAGUUCACAGACUAAAUGUCGGUCGGGGAAGAUGUAUUCUUCUCAUAAGAUAUAGUCGGACCUCUCCUUAAUGGGAGCUAGCGGAUGAAGUGAUGCAACACUGGAGCCGCUGGGAACUAAUUUGUAUGCGAAAGUAUAUUGAUUAGUUUUGGAGUACUCGUGGUCG
How it was run: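 DiMSum derived fitness as the error-weighted combination of fold changes across replicates, kanamycin versus no kanamycin, normalised to wild type. E. coli BL21(DE3) held the library, which randomised all eight P1ex-region intron nucleotides within the knt kanamycin-resistance gene on pET-22b(+). Six replicate transformations grew overnight at 37°C or 30°C on LB agar with or without 25 μg/mL kanamycin, also containing 100 μg/mL carbenicillin, 50 μM IPTG and 0.2% rhamnose, and pooled colonies were amplicon-sequenced on an Illumina HiSeq 2500.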

| Sequence | self-splicing fitness (ln) (30 °C) | self-splicing fitness (ln) (37 °C) |
| --- | --- | --- |
| CAAAAGCAAUAUUACGUACG | -0.125 ± 0.061 | 0.143 ± 0.07 |
| CGUUAGCAAUAUUACGCCGU | – | -0.993 ± 0.44 |
| UCCGAGCAAUAUUACGACAC | -2.81 ± 0.21 | -2.33 ± 0.23 |
| CUGAAGCAAUAUUACGGCUC | -2.75 ± 0.16 | -2.52 ± 0.25 |
| CUGAAGCAAUAUUACGCAAC | – | -2.22 ± 0.35 |
| GGGUAGCAAUAUUACGUAGU | -2.23 ± 0.085 | -0.762 ± 0.093 |
| CUGGAGCAAUAUUACGGGCU | -3.05 ± 0.37 | -2.46 ± 0.49 |
| CUCGAGCAAUAUUACGUGUG | -2.74 ± 0.12 | -1.27 ± 0.095 |
| UUAUAGCAAUAUUACGUCCG | -1.64 ± 0.17 | -1 ± 0.17 |
| AAGUAGCAAUAUUACGUGGC | -2.22 ± 0.18 | -3.29 ± 0.39 |
| GUAGAGCAAUAUUACGAUCG | -2.6 ± 0.15 | -0.951 ± 0.17 |
| AUCCAGCAAUAUUACGCCUU | -0.818 ± 0.067 | -0.214 ± 0.082 |
| CGUGAGCAAUAUUACGAUUC | -3.25 ± 0.23 | -2.58 ± 0.44 |
| CGUUAGCAAUAUUACGUGCA | -1.38 ± 0.11 | -0.0413 ± 0.11 |
| GCUCAGCAAUAUUACGAUAA | -0.805 ± 0.092 | -0.579 ± 0.11 |
| CGGCAGCAAUAUUACGUCGC | – | -0.603 ± 0.28 |
| AGAUAGCAAUAUUACGCGAA | -3.1 ± 0.28 | -0.447 ± 0.17 |

| Sequence | self-splicing fitness (ln) (30 °C) | self-splicing fitness (ln) (37 °C) |
| --- | --- | --- |
| ACACAGCAAUAUUACGCCAU | -3.18 ± 0.21 | -1.85 ± 0.15 |
| GAGUAGCAAUAUUACGUUGU | -2.19 ± 0.17 | -1.41 ± 0.16 |
| CACUAGCAAUAUUACGAUGA | -1.85 ± 0.16 | -1.01 ± 0.14 |
| GGGAAGCAAUAUUACGCAAU | -2.67 ± 0.17 | -1.42 ± 0.19 |
| GUGAAGCAAUAUUACGUCGC | -2.77 ± 0.25 | -1.75 ± 0.18 |
| GGCGAGCAAUAUUACGUGGG | -3.57 ± 0.44 | -1.44 ± 0.27 |
| CAUCAGCAAUAUUACGACGA | -1.38 ± 0.16 | -0.863 ± 0.14 |
| UACAAGCAAUAUUACGACGU | -0.941 ± 0.07 | -0.409 ± 0.081 |
| GGUGAGCAAUAUUACGGGUA | -2.58 ± 0.31 | -1.64 ± 0.38 |
| UGGCAGCAAUAUUACGGCAU | -1.18 ± 0.083 | -0.388 ± 0.092 |
| CUAAAGCAAUAUUACGCCCG | 0.465 ± 0.11 | -0.0373 ± 0.12 |
| AGAAAGCAAUAUUACGGUGG | -3.11 ± 0.18 | -2.32 ± 0.17 |
| CCGGAGCAAUAUUACGUAUG | -1.41 ± 0.071 | -0.561 ± 0.083 |
| UAAGAGCAAUAUUACGCAUG | -2.75 ± 0.28 | -1.2 ± 0.23 |
| CAUGAGCAAUAUUACGACUG | -1.78 ± 0.13 | -0.743 ± 0.18 |
| AUGAAGCAAUAUUACGCCCG | -0.353 ± 0.25 | -0.729 ± 0.38 |
| GCCUAGCAAUAUUACGUUGA | -1.54 ± 0.11 | -0.577 ± 0.1 |
